Measurements: patent US10919943B2, “Mutant proteins enabling agrochemical control of plant gene expression” (The Regents of the University of California, priority 2016, dated 2021)

T1: PYR1 (Arabidopsis thaliana, UniProt O49686)
T1 construct: expressed in transfected cells; host or cells: S. cerevisiae strain Y190
T1 sequence (O49686 1-191): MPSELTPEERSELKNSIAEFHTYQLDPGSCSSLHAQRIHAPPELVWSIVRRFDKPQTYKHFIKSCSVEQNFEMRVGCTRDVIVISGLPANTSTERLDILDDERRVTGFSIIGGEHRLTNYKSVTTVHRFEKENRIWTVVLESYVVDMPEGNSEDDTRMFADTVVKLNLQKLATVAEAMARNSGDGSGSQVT

B1: I383Q: HAB1 mutant (protein, UniProt Q9CAJ0 23-511, looked up, variant I383Q)
Protein phosphatase 2C 16: SPVEITQLKNVTDAADLLSDSENQSFCNGGTECTMEDVSELEEVGEQDLLKTLSDTRSGSSNVFDEDDVLSVVEDNSAVISEGLLVVDAGSELSLSNTAMEIDNGRVLATAIIVGESSIEQVPTAEVLIAGVNQDTNTSEVVIRLPDENSNHLVKGRSVYELDCIPLWGTVSIQGNRSEMEDAFAVSPHFLKLPIKMLMGDHEGMSPSLTHLTGHFFGVYDGHGGHKVADYCRDRLHFALAEEIERIKDELCKRNTGEGRQVQWDKVFTSCFLTVDGEIEGKIGRAVVGSSDKVLEAVASETVGSTAVVALVCSSHIVVSNCGDSRAVLFRGKEAMPLSVDHKPDREDEYARIENAGGKVQQWQGARVFGVLAMSRSIGDRYLKPYVIPEPEVTFMPRSREDECLILASDGLWDVMNNQEVCEIARRRILMWHKKNGAPPLAERGKGIDPACQAAADYLSMLALQKGSKDNISIIVIDLKAQRKFKTRT
B2: I383S: HAB1 mutant (protein, UniProt Q9CAJ0 23-511, looked up, variant I383S)
Protein phosphatase 2C 16: SPVEITQLKNVTDAADLLSDSENQSFCNGGTECTMEDVSELEEVGEQDLLKTLSDTRSGSSNVFDEDDVLSVVEDNSAVISEGLLVVDAGSELSLSNTAMEIDNGRVLATAIIVGESSIEQVPTAEVLIAGVNQDTNTSEVVIRLPDENSNHLVKGRSVYELDCIPLWGTVSIQGNRSEMEDAFAVSPHFLKLPIKMLMGDHEGMSPSLTHLTGHFFGVYDGHGGHKVADYCRDRLHFALAEEIERIKDELCKRNTGEGRQVQWDKVFTSCFLTVDGEIEGKIGRAVVGSSDKVLEAVASETVGSTAVVALVCSSHIVVSNCGDSRAVLFRGKEAMPLSVDHKPDREDEYARIENAGGKVSQWQGARVFGVLAMSRSIGDRYLKPYVIPEPEVTFMPRSREDECLILASDGLWDVMNNQEVCEIARRRILMWHKKNGAPPLAERGKGIDPACQAAADYLSMLALQKGSKDNISIIVIDLKAQRKFKTRT
B3: I383E: HAB1 mutant (protein, UniProt Q9CAJ0 23-511, looked up, variant I383E)
Protein phosphatase 2C 16: SPVEITQLKNVTDAADLLSDSENQSFCNGGTECTMEDVSELEEVGEQDLLKTLSDTRSGSSNVFDEDDVLSVVEDNSAVISEGLLVVDAGSELSLSNTAMEIDNGRVLATAIIVGESSIEQVPTAEVLIAGVNQDTNTSEVVIRLPDENSNHLVKGRSVYELDCIPLWGTVSIQGNRSEMEDAFAVSPHFLKLPIKMLMGDHEGMSPSLTHLTGHFFGVYDGHGGHKVADYCRDRLHFALAEEIERIKDELCKRNTGEGRQVQWDKVFTSCFLTVDGEIEGKIGRAVVGSSDKVLEAVASETVGSTAVVALVCSSHIVVSNCGDSRAVLFRGKEAMPLSVDHKPDREDEYARIENAGGKVEQWQGARVFGVLAMSRSIGDRYLKPYVIPEPEVTFMPRSREDECLILASDGLWDVMNNQEVCEIARRRILMWHKKNGAPPLAERGKGIDPACQAAADYLSMLALQKGSKDNISIIVIDLKAQRKFKTRT
B4: I383W: HAB1 mutant (protein, UniProt Q9CAJ0 23-511, looked up, variant I383W)
Protein phosphatase 2C 16: SPVEITQLKNVTDAADLLSDSENQSFCNGGTECTMEDVSELEEVGEQDLLKTLSDTRSGSSNVFDEDDVLSVVEDNSAVISEGLLVVDAGSELSLSNTAMEIDNGRVLATAIIVGESSIEQVPTAEVLIAGVNQDTNTSEVVIRLPDENSNHLVKGRSVYELDCIPLWGTVSIQGNRSEMEDAFAVSPHFLKLPIKMLMGDHEGMSPSLTHLTGHFFGVYDGHGGHKVADYCRDRLHFALAEEIERIKDELCKRNTGEGRQVQWDKVFTSCFLTVDGEIEGKIGRAVVGSSDKVLEAVASETVGSTAVVALVCSSHIVVSNCGDSRAVLFRGKEAMPLSVDHKPDREDEYARIENAGGKVWQWQGARVFGVLAMSRSIGDRYLKPYVIPEPEVTFMPRSREDECLILASDGLWDVMNNQEVCEIARRRILMWHKKNGAPPLAERGKGIDPACQAAADYLSMLALQKGSKDNISIIVIDLKAQRKFKTRT
B5: I383R: HAB1 mutant (protein, UniProt Q9CAJ0 23-511, looked up, variant I383R)
Protein phosphatase 2C 16: SPVEITQLKNVTDAADLLSDSENQSFCNGGTECTMEDVSELEEVGEQDLLKTLSDTRSGSSNVFDEDDVLSVVEDNSAVISEGLLVVDAGSELSLSNTAMEIDNGRVLATAIIVGESSIEQVPTAEVLIAGVNQDTNTSEVVIRLPDENSNHLVKGRSVYELDCIPLWGTVSIQGNRSEMEDAFAVSPHFLKLPIKMLMGDHEGMSPSLTHLTGHFFGVYDGHGGHKVADYCRDRLHFALAEEIERIKDELCKRNTGEGRQVQWDKVFTSCFLTVDGEIEGKIGRAVVGSSDKVLEAVASETVGSTAVVALVCSSHIVVSNCGDSRAVLFRGKEAMPLSVDHKPDREDEYARIENAGGKVRQWQGARVFGVLAMSRSIGDRYLKPYVIPEPEVTFMPRSREDECLILASDGLWDVMNNQEVCEIARRRILMWHKKNGAPPLAERGKGIDPACQAAADYLSMLALQKGSKDNISIIVIDLKAQRKFKTRT
B6: I383D: HAB1 mutant (protein, UniProt Q9CAJ0 23-511, looked up, variant I383D)
Protein phosphatase 2C 16: SPVEITQLKNVTDAADLLSDSENQSFCNGGTECTMEDVSELEEVGEQDLLKTLSDTRSGSSNVFDEDDVLSVVEDNSAVISEGLLVVDAGSELSLSNTAMEIDNGRVLATAIIVGESSIEQVPTAEVLIAGVNQDTNTSEVVIRLPDENSNHLVKGRSVYELDCIPLWGTVSIQGNRSEMEDAFAVSPHFLKLPIKMLMGDHEGMSPSLTHLTGHFFGVYDGHGGHKVADYCRDRLHFALAEEIERIKDELCKRNTGEGRQVQWDKVFTSCFLTVDGEIEGKIGRAVVGSSDKVLEAVASETVGSTAVVALVCSSHIVVSNCGDSRAVLFRGKEAMPLSVDHKPDREDEYARIENAGGKVDQWQGARVFGVLAMSRSIGDRYLKPYVIPEPEVTFMPRSREDECLILASDGLWDVMNNQEVCEIARRRILMWHKKNGAPPLAERGKGIDPACQAAADYLSMLALQKGSKDNISIIVIDLKAQRKFKTRT
B7: I383T: HAB1 mutant (protein, UniProt Q9CAJ0 23-511, looked up, variant I383T)
Protein phosphatase 2C 16: SPVEITQLKNVTDAADLLSDSENQSFCNGGTECTMEDVSELEEVGEQDLLKTLSDTRSGSSNVFDEDDVLSVVEDNSAVISEGLLVVDAGSELSLSNTAMEIDNGRVLATAIIVGESSIEQVPTAEVLIAGVNQDTNTSEVVIRLPDENSNHLVKGRSVYELDCIPLWGTVSIQGNRSEMEDAFAVSPHFLKLPIKMLMGDHEGMSPSLTHLTGHFFGVYDGHGGHKVADYCRDRLHFALAEEIERIKDELCKRNTGEGRQVQWDKVFTSCFLTVDGEIEGKIGRAVVGSSDKVLEAVASETVGSTAVVALVCSSHIVVSNCGDSRAVLFRGKEAMPLSVDHKPDREDEYARIENAGGKVTQWQGARVFGVLAMSRSIGDRYLKPYVIPEPEVTFMPRSREDECLILASDGLWDVMNNQEVCEIARRRILMWHKKNGAPPLAERGKGIDPACQAAADYLSMLALQKGSKDNISIIVIDLKAQRKFKTRT
B8: I383Y: HAB1 mutant (protein, UniProt Q9CAJ0 23-511, looked up, variant I383Y)
Protein phosphatase 2C 16: SPVEITQLKNVTDAADLLSDSENQSFCNGGTECTMEDVSELEEVGEQDLLKTLSDTRSGSSNVFDEDDVLSVVEDNSAVISEGLLVVDAGSELSLSNTAMEIDNGRVLATAIIVGESSIEQVPTAEVLIAGVNQDTNTSEVVIRLPDENSNHLVKGRSVYELDCIPLWGTVSIQGNRSEMEDAFAVSPHFLKLPIKMLMGDHEGMSPSLTHLTGHFFGVYDGHGGHKVADYCRDRLHFALAEEIERIKDELCKRNTGEGRQVQWDKVFTSCFLTVDGEIEGKIGRAVVGSSDKVLEAVASETVGSTAVVALVCSSHIVVSNCGDSRAVLFRGKEAMPLSVDHKPDREDEYARIENAGGKVYQWQGARVFGVLAMSRSIGDRYLKPYVIPEPEVTFMPRSREDECLILASDGLWDVMNNQEVCEIARRRILMWHKKNGAPPLAERGKGIDPACQAAADYLSMLALQKGSKDNISIIVIDLKAQRKFKTRT
B9: I383G: HAB1 mutant (protein, listed as Arabidopsis thaliana)
chain: MEEMTPAVAMTLSLAANTMCESSPVEITQLKNVTDAADLLSDSENQSFCNGGTECTMEDVSELEEVGEQDLLKTLSDTRSGSSNVFDEDDVLSVVEDNSAVISEGLLVVDAGSELSLSNTAMEIDNGRVLATAIIVGESSIEQVPTAEVLIAGVNQDTNTSEVVIRLPDENSNHLVKGRSVYELDCIPLWGTVSIQGNRSEMEDAFAVSPHFLKLPIKMLMGDHEGMSPSLTHLTGHFFGVYDGHGGHKVADYCRDRLHFALAEEIERIKDELCKRNTGEGRQVQWDKVFTSCFLTVDGEIEGKIGRAVVGSSDKVLEAVASETVGSTAVVALVCSSHIVVSNCGDSRAVLFRGKEAMPLSVDHKPDREDEYARIENAGGKVGQWQGARVFGVLAMSRSIGDRYLKPYVIPEPEVTFMPRSREDECLILASDGLWDVMNNQEVCEIARRRILMWHKKNGAPPLAERGKGIDPACQAAADYLSMLALQKGSKDNISIIVIDLKAQRKFKTRT

Target: T1, PYR1
Test: Yeast two hybrid of pACT-HAB1 site saturation mutants with pBD-PYR1 on 10 μM ABA, β-galactosidase staining
Format: cell-based
Set-up: key: x: Mutations in HAB1 that disrupt HAB1 interaction with PYR1
Conditions: S. cerevisiae Y190, 10 μM ABA; dead = lack of detectable staining in comparison to wild type control
From the text: To systematically define mutations in HAB1 that disrupt its binding to PYR1, we used site saturation mutagenesis to create a collection all possible single amino acid substitutions in 20 residues lining the PYR1 binding interface, and then assayed the ability of each mutant to bind PYR1 using the yeast two hybrid assay described above. We targeted the following residues for mutagenesis: R199, 5200, E201, E203, H245, G246, G247, S322, E323, T324, K381, I383, Q384, W385, Q386, R389, F391, G392, V393, and Y404. To create the collection of mutations, mutagenic “NNK” site directed mutagenesis primers were synthesized for each of the 20 positions and the primers used in QuickChange site-directed mutagenesis reactions using a previously described pACT-HAB1 template (Park et al., 2009). We note that this clone uses a HAB1 cDNA lacking its three N-terminal amino acids. The reaction products were digested with DpnI, and transformed into competent Escherichia coli DH5α cells and plasmid DNA for 96 colonies per site was isolated using Bioneer AccuPrep® Plasmid Mini Extraction Kit (Alameda, Calif.) and sequenced to identify mutants. This process identified most of the 19 desired mutations per target site; the remaining mutations were constructed directly using specific mutagenic primers. To interrogate the effects of the mutations on PYR1-HAB1 interactions, the mutant clones were individually transformed into S. cerevisiae strain Y190 containing pBD-PYR1 (Park et al., 2009). Yeast transformants were selected for the presence of plasmids on selective SD (-Leu,-Trp) plates and then spotted onto SD (-Leu,-Trp) agar plates supplemented with 10 μM ABA. After incubating the test plates at 30° C. for two days, the colonies were lysed with chloroform and stained to reveal […] expression levels. “Dead” mutants were defined by lack of detectable staining in comparison to a wild type pBD-PYR1/pACT-HAB1 control. This screening effort defined 163 mutations that disrupt the ABA-induced PYR1/HAB1 interaction (Table 2).

Row | Mutations in HAB1 that disrupt HAB1 interaction with PYR1 | Molecule
1 | x | B1
2 | x | B2
3 | x | B3
4 | x | B4
5 | x | B5
6 | x | B6
7 | x | B7
8 | x | B8
9 | x | B9
